In PMC5678773 one finds amiR-D1 transcript (gene downstream of the UAS) by quantitative PCR in the transgenic alga, after blue light irradiation against before (red light culture) data, which are given here for one substance.

Some results are limits rather than exact numbers.

This assay addresses T1, CIB1 (cryptochrome-interacting basic-helix-loop-helix) fused with the GAL4 DNA-binding domain (Arabidopsis) (UniProt Q8GY61).
T1 sequence: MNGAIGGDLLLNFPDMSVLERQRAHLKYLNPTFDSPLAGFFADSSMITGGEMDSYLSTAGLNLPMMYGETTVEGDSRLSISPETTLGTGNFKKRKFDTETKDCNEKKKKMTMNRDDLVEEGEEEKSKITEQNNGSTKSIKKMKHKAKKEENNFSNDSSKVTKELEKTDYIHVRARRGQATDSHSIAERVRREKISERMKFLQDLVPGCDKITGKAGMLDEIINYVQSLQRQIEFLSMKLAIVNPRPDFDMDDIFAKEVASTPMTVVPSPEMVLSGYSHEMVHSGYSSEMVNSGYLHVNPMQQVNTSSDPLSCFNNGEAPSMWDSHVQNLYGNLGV

The substance “CRY2 (cryptochrome 2) fused with the VP16 transcription activation domain (from UniProt Q96524 1-612) (natural protein)” came in with an amiR-D1 transcript (gene downstream of the UAS) by quantitative PCR in the transgenic alga, after blue light irradiation against before (red light culture) above 14 fold.
